Measured values: patent US20230295310A1

Target: human CD3 expressed on cells (human) (UniProt P07766)
Test: flow cytometry, 25 nM

human CD3 expressed on cells (human), sequence (P07766 23-207, chain 1 of 3): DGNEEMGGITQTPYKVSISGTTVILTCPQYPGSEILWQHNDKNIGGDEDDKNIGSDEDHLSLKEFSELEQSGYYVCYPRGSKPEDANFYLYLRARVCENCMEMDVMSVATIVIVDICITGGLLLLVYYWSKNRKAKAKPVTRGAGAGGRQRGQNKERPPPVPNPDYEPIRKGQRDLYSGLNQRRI
human CD3 expressed on cells (human), sequence (P04234 22-171, chain 2 of 3, further chain): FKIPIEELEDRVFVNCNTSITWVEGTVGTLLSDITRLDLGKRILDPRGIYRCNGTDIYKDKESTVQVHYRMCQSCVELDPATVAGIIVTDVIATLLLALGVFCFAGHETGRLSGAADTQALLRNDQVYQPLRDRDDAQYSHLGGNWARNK
human CD3 expressed on cells (human), sequence (P09693 23-182, chain 3 of 3, further chain): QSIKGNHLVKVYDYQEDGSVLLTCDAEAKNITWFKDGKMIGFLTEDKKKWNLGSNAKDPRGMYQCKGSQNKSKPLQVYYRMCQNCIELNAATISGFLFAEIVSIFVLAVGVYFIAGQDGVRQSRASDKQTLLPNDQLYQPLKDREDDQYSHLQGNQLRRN

Human primary T Cell Binding (FOI): 1.4 FOI
B1: mAb 109 (antibody, V domains shown)
VH: QVQLVESGGGVVQPGRSLRLSCVASGFPFRSYGMHWVRQAPGKGLEWVAFIWYDGSNKYYADSVRGRFTISRDNFKKMVYLQMNSLRAEDTAVYYCARDLAGIYAFDVWGQGTVVTVSS
VL: EIVMTQSPATLSVSPGERATLSCRASQSVSSNLAWYQQKPGQAPRLLIYGASTRATGIPARFSGSGSGTEFTLTVSSLQSEDFAIYYCQQYNNWRPLTFGGGTKVEIK
